Data reported in IntAct's records for PubMed 24530283.

Molecular target: fos_mouse Fos (UniProt P01101)
Sequence (P01101 whole entry): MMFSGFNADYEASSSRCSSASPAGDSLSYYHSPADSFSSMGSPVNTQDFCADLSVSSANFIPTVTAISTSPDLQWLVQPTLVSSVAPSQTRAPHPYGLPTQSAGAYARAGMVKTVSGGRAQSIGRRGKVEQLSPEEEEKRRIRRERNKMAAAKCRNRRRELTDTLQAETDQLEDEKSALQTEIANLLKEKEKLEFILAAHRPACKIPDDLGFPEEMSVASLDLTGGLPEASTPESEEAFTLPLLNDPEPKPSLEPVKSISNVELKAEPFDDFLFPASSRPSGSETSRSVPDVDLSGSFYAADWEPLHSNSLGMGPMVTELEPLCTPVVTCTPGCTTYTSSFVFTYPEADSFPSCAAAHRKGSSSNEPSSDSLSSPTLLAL

Transcription factor MafB (Mus musculus), P54841 V277N, sequence (P54841 whole entry V277N): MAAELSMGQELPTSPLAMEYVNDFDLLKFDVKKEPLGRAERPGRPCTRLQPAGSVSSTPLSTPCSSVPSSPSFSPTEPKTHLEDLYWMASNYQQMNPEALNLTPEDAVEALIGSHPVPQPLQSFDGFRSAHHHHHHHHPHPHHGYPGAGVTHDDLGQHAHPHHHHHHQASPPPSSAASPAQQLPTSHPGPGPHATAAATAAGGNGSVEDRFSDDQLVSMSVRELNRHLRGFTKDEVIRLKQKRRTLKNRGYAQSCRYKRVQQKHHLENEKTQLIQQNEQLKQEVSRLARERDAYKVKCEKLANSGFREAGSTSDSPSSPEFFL
Transcription factor MafB (Mus musculus), P54841 E269R, sequence (P54841 whole entry E269R): as the sequence (P54841 whole entry V277N) above, with E269R, N277V counted along it

Substance	effect of a mutation on the interaction
Transcription factor MafB (Mus musculus), P54841 E269R	increasing interaction strength
Transcription factor MafB (Mus musculus), P54841 V277N	disrupting interaction strength
